Data on one molecule can be found in patent CN106946990A.

The target of assay [1] is Myc-GST融合蛋白 (Myc tag fused to glutathione [S-transferase]). Description: indirect ELISA on coated Myc-GST (5 μg/mL), HRP anti-His secondary, 30 min at 90℃.
For assay [2] the target is unchanged. The experiment in a line: indirect ELISA on coated Myc-GST (5 μg/mL), HRP anti-His secondary, 30 min at 80℃. In general terms: An ELISA detects its analyte on a solid surface through an enzyme-linked reagent.
Assay [3] shares this target. Description: indirect ELISA on coated Myc-GST (5 μg/mL), HRP anti-His secondary, 30 min at 70℃.

B1: 针对c-Myc标签的单域重链抗体 (single-domain heavy-chain antibody against the c-Myc tag, SEQ ID NO.:1) (VHH, not shown: small tags and cut ends)
VHH: QLQLVESGGGLVQPGGSLRLSCSASGFAFNLFYMGWVRQAPGKGLEWVADIDNTGDKYYAESVEGRFTVSRDNAKKTLYLQMDSLKSEDTAQYYCLKGGCRETFSLCARGQGTQVTVSS
As to B1, the OD450 was 1.1 OD450 in assay [1], 1.4 OD450 in assay [2] and 1.5 OD450 in assay [3].
